Where a chain is given by its changes, count along the chain named. “And” between values parts separate entries of the source, which are not always exact repeats. Equal values may be shown once. Read-outs that look alike come from different tables or passages of the source. Each block holds one binder with its values, some of them ahead of it.
Assays:
[1] = biological target: T1, human Nectin-4, full length on cells (human, UniProt Q96NY8 32-510); assay: flow cytometry, T-47D cells, antibody bound on ice, 0 h at 37 C
T1 construct: whole, on cells; T-47D cells positive for Nectin-4 expression; also called Nectin-4 on T-47D cells; CHO-Nectin-4
T1 sequence (looked up): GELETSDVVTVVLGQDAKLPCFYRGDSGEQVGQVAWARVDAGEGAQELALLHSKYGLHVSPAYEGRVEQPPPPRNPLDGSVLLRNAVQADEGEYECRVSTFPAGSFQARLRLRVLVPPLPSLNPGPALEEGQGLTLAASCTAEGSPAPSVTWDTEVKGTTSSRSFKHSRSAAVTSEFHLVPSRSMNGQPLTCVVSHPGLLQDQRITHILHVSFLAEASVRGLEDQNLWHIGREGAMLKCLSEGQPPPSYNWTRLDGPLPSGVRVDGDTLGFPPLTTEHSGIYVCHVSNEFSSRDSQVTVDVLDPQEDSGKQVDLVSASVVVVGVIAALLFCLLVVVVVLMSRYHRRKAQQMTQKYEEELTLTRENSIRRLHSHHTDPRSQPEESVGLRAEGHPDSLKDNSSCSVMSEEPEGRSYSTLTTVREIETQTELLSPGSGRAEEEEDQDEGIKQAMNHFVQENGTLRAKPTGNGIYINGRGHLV
Procedure: (§1) In this assay, the relative amount of antibodies remaining on the cell surface after co-incubation at 37° C. for a certain period of time was detected by FACS to reflect the endocytosis efficiency. The procedures are briefly described as follows: T-47D cells (human ductal breast cancer cells, derived from the Cell Bank of Chinese Academy of Sciences, Cat.No. TCHu 87); the antibodies of interest were adjusted to 10 µg/mL and co-incubated with the cells on ice for 1 h; the cells were washed 3 times with pre-cooled PBS, and then placed at 37° C. and incubated for 0 h, 2 h and 4 h; 0.2% N₃Na was added to stop the endocytosis reaction; the cells were washed with PBS thrice, followed by the addition of the PE-labeled anti-human Fc secondary antibody (Invitrogen 12-4998-82); the cells were incubated at 4° C. for 30 min; the red fluorescence signal was detected on a flow cytometer.

[2] = biological target: T2, human Nectin-4 extracellular antigen hNectin-4-His (human, UniProt Q96NY8 32-349); assay: SPR, antibody on Protein A chip, hNectin-4-His analyte, 1:1 fit
T2 construct: C-terminal 8xHis tag included
T2 sequence: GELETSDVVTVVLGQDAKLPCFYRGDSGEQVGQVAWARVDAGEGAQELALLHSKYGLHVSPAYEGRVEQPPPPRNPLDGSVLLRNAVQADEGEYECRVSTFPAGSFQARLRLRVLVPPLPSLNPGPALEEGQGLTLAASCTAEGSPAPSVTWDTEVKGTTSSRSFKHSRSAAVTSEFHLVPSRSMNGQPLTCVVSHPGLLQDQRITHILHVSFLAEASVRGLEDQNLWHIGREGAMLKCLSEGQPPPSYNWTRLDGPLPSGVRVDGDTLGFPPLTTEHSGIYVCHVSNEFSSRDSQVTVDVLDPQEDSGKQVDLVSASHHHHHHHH
Excerpt: (§2) In this study, the affinity of the antibodies for the human Nectin-4 extracellular antigen was detected by surface plasmon resonance (SPR) technique (BIAcore: GE Healthcare, T200).

[3] = biological target: T2, human Nectin-4 extracellular antigen …; assay: ELISA, coated hNectin-4-His
Excerpt: (§3) The binding activity of the antibodies was detected by ELISA.

[4] = biological target: T2, human Nectin-4 extracellular antigen …; assay: ELISA, coated hNectin-4-His; remark: listed apart in the source
Excerpt: as §3

[5] = biological target: T2, human Nectin-4 extracellular antigen …; assay: SPR, antibody on Protein A chip, 1:1 fit
Excerpt: as §2

[6] = biological target: T1, human Nectin-4, full length on cells; assay: flow cytometry, T-47D cells, antibody bound on ice, 0 h at 37 C; remark: listed apart in the source
Procedure: as §1

[7] = biological target: T2, human Nectin-4 extracellular antigen …; assay: ELISA, coated antigen
Excerpt: as §3
In this assay, the binding of different antibodies to human Nectin-4 homologous proteins hNectin-1 (ACRO, PV1-H5223), hNectin-2 (ACRO, PV2-H52E2), hNectin-3 (ACRO, PV3-H52E4), and hNectin-4-His was detected by ELISA to determine the specificity of the antibodies. For the methodology and procedures, see Example 4. Antigens of interest ([…]) were immobilized; after blocking, serially diluted antibodies (2-fold serially diluted from […]) were added, and HRP-labeled anti-human-Kappa secondary antibody was added for chromogenic reaction.

[8] = biological target: T3, mouse mNectin-4 protein (ACRO, NE4-M52H3) (mouse, UniProt Q8R007 31-347); assay: ELISA, coated antigen
T3 construct: bought; construct not described; also called mouse Nectin-4
T3 sequence (looked up): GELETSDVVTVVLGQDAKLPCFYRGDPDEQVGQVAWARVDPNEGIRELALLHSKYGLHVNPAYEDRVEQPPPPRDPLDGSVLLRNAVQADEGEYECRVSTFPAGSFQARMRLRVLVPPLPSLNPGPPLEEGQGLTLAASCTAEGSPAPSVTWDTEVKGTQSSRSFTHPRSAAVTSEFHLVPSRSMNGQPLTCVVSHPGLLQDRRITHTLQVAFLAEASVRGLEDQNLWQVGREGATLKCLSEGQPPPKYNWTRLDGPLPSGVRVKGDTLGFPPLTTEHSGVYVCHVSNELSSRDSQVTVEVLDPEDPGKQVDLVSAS

[9] = biological target: T4, monkey cNectin-4 protein (ACRO, NE4-C52H4) (cynomolgus monkey, UniProt A0A2K5WES1 32-349); assay: ELISA, coated antigen
T4 construct: bought; construct not described; also called cynomolgus monkey Nectin-4
T4 sequence: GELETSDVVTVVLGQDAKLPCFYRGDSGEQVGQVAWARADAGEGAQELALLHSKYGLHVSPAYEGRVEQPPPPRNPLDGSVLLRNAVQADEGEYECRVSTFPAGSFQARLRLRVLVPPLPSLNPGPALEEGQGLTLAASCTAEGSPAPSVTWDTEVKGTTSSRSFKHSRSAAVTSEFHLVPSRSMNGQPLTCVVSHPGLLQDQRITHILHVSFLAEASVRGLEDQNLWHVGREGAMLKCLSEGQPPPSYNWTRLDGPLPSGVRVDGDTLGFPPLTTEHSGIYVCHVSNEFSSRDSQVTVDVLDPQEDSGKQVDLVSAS

[10] = biological target: T2, human Nectin-4 extracellular antigen …; assay: ELISA, coated antigen; remark: listed apart in the source
[11] = biological target: T1, human Nectin-4, full length on cells; assay: flow cytometry on T-47D cells
Procedure: In this study, the binding activity of different antibodies to T-47D cells positive for Nectin-4 expression was detected by FACS, and the EC₅₀ for the binding of antibodies to the cells was analyzed by a four-parameter method. The procedures are briefly described as follows: T-47D cells (the Cell Bank of Chinese Academy of Sciences, TCHu 87) were trypsinized; the antibodies were serially diluted and co-incubated with T-47D cells at 4° C. for 0.5-1 h, followed by the addition of the secondary PE-labeled anti-human Fc antibody (Invitrogen, 12-4998-82); the signal intensity of red fluorescence was detected on a flow cytometer, and curves were plotted using Graphpad Prism and the EC₅₀ was calculated.

MFI (mean fluorescence intensity) 0 h [1]: 108000 MFI | Kd [2]: 5330 pM | koff [2]: 0.0032 s⁻¹ | kon [2]: 600000 M⁻¹ s⁻¹ | EC50 [3]: 0.025 µg/mL
B1: antibody 1B4 (antibody, human IgG1, kappa, V domains shown)
VH: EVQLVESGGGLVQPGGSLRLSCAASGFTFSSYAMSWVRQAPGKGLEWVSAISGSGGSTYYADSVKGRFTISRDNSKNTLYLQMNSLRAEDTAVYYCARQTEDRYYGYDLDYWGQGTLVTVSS
VL: DIQMTQSPSSLSASVGDRVTITCRASQGISSYLAWYQQKPGKAPKLLIYAASSLQSGVPSRFSGSGSGTDFTLTISSLQPEDFATYYCQQHYTTPPTFGQGTKVEIKR

EC50 [4]: 0.007 µg/mL | Kd [5]: 815 pM | koff [5]: 0.00115 s⁻¹ | kon [5]: 1.41e+06 M⁻¹ s⁻¹ | MFI (mean fluorescence intensity) 0 h [6]: 60500 MFI
B2: antibody 1F3-1G11 (antibody, human IgG1, kappa, V domains shown)
VH: EVQLVESGGGLVQPGGSLRLSCAASGYSFTGYGMSWVRQAPGKGLEWVSGISPSGGTIGYADSVKGRFTISRDNSKNTLYLQMNSLRAEDTAVYYCARAELLAFDVYTASDYWGQGTLVTVSS
VL: B1 VL

Kd [2]: 16700 pM | koff [2]: 0.00631 s⁻¹ | kon [2]: 377000 M⁻¹ s⁻¹ | EC50 [3]: 0.022 µg/mL
B3: antibody 1G7 (antibody, human IgG1, kappa, V domains shown)
VH: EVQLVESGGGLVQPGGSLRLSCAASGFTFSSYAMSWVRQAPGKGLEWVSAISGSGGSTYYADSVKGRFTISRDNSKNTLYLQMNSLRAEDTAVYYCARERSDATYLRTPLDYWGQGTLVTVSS
VL: B1 VL

Kd [2]: 8610 pM | koff [2]: 0.00464 s⁻¹ | kon [2]: 539000 M⁻¹ s⁻¹ | EC50 [3]: 0.073 µg/mL
B4: antibody 1G12 (antibody, human IgG1, kappa, V domains shown)
VH: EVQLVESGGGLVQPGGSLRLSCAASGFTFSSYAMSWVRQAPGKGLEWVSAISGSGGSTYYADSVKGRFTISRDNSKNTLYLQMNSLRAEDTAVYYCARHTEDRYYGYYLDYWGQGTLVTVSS
VL: B1 VL

EC50 [4]: 0.009 µg/mL | Kd [5]: 872 pM | koff [5]: 0.00102 s⁻¹ | kon [5]: 1.17e+06 M⁻¹ s⁻¹ | MFI (mean fluorescence intensity) 0 h [6]: 58200 MFI
B5: antibody 1F3-2E8 (antibody, human IgG1, kappa, V domains shown)
VH: B2 VH with T30S, G31D, G50W, G55K, T57S, I58A, G59S
VL: B1 VL

EC50 [7]: 0.062 µg/mL | MFI (mean fluorescence intensity) 0 h [1]: 105000 MFI | EC50 [8]: 0.037 µg/mL | EC50 [9]: 0.042 µg/mL | EC50 [10]: 0.037 µg/mL | Kd [2]: 2100 pM | koff [2]: 0.000867 s⁻¹ | kon [2]: 413000 M⁻¹ s⁻¹ | EC50 [3]: 0.068 µg/mL | EC50 [11]: 0.186 µg/mL and 1.24 nM
B6: antibody 3A10 (antibody, human IgG1, kappa, V domains shown)
VH: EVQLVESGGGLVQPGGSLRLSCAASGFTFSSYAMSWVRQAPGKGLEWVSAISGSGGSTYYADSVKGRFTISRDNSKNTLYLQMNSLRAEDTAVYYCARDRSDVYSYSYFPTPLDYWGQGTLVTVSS
VL: B1 VL

EC50 [4]: 0.014 µg/mL | Kd [5]: 241 pM | koff [5]: 0.000317 s⁻¹ | kon [5]: 1.32e+06 M⁻¹ s⁻¹ | MFI (mean fluorescence intensity) 0 h [6]: 59400 MFI
B7: antibody 1F3-2B1 (antibody, human IgG1, kappa, V domains shown)
VH: B2 VH with S28N, T30D, G31N, G33A, S52K, S54D, G55S, G56A, I58T, G59Y
VL: B1 VL

EC50 [4]: 0.017 µg/mL | Kd [5]: 141 pM | koff [5]: 0.000212 s⁻¹ | kon [5]: 1.51e+06 M⁻¹ s⁻¹ | MFI (mean fluorescence intensity) 0 h [6]: 73400 MFI
B8: antibody 1F3-1E1 (antibody, human IgG1, kappa, V domains shown)
VH: B2 VH with Y27F, T30D, G31D, G33A, G50I, S52Y, S54T, G56S, I58N, G59Y
VL: B1 VL

Kd [5]: 399 pM | koff [5]: 0.000137 s⁻¹ | kon [5]: 343000 M⁻¹ s⁻¹ | MFI (mean fluorescence intensity) 0 h [6]: 63400 MFI
B9: antibody 10F4-5 (antibody, human IgG1, kappa, V domains shown)
VH: EVQLVESGGGLVQPGGSLRLSCAASGFIFDGYDMSWVRQAPGKGLEWVSVIKDHGGYKFYADSVKGRFTISRDNSKNTLYLQMNSLRAEDTAVYYCAREYSDVVDYVSVRTPLDYWGQGTLVTVSS
VL: B1 VL

EC50 [4]: 0.011 µg/mL | Kd [5]: 370 pM | koff [5]: 0.000519 s⁻¹ | kon [5]: 1.4e+06 M⁻¹ s⁻¹ | MFI (mean fluorescence intensity) 0 h [6]: 69000 MFI
B10: antibody 1F3-2F3 (antibody, human IgG1, kappa, V domains shown)
VH: EVQLVESGGGLVQPGGSLRLSCAASGFNFSDYGMSWVRQAPGKGLEWVSRIDWDGGNTRYADSVKGRFTISRDNSKNTLYLQMNSLRAEDTAVYYCARAELLAFDVYTASDYWGQGTLVTVSS
VL: B1 VL

Kd [5]: 352 pM | koff [5]: 0.000122 s⁻¹ | kon [5]: 346000 M⁻¹ s⁻¹ | MFI (mean fluorescence intensity) 0 h [6]: 61200 MFI
B11: antibody 10F4-3 (antibody, human IgG1, kappa, V domains shown)
VH: EVQLVESGGGLVQPGGSLRLSCAASGFSFGDFAMSWVRQAPGKGLEWVSVIDGHTAYNSYADSVKGRFTISRDNSKNTLYLQMNSLRAEDTAVYYCAREYSDVVDYVSVRTPLDYWGQGTLVTVSS
VL: B1 VL

MFI (mean fluorescence intensity) 0 h [1]: 107000 MFI | Kd [2]: 6710 pM | koff [2]: 0.00232 s⁻¹ | kon [2]: 346000 M⁻¹ s⁻¹ | EC50 [3]: 0.041 µg/mL
B12: antibody 10A4 (antibody, human IgG1, kappa, V domains shown)
VH: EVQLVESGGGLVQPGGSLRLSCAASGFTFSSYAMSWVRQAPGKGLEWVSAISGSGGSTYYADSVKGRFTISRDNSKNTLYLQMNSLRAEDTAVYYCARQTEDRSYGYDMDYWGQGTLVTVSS
VL: B1 VL

EC50 [4]: 0.016 µg/mL | Kd [5]: 170 pM | koff [5]: 0.000204 s⁻¹ | kon [5]: 1.2e+06 M⁻¹ s⁻¹ | MFI (mean fluorescence intensity) 0 h [6]: 65300 MFI
B13: antibody 1F3-1B1 (antibody, human IgG1, kappa, V domains shown)
VH: B2 VH with Y27F, S28T, T30G, G31T, S52K, S54G, G55D, G56S, I58T, G59Y
VL: B1 VL

— patent US20260144882A1 (BIO THERA SOLUTIONS, published 2026)
